Consider two molecules from paper PMC2721222 (Cancer research, 2009).

Broadly, the Kd is the equilibrium constant for the complex coming apart.

The target of assay [1] is MUC1-CD cytoplasmic domain (Homo sapiens) (UniProt P15941). The settings on record: cited from earlier work.
In assay [2] the target is T1, His-tagged MUC1 cytoplasmic domain (UniProt P15941 1182-1255).
T1 sequence (looked up): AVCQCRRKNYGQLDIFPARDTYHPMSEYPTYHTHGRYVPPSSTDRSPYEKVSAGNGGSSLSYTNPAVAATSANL
As to the kind of experiment: SPR. A general note: Surface plasmon resonance follows binding to a sensor surface in real time, without labels.

In the case of “MUC1-CD cytoplasmic domain (from UniProt P15941)”, the Kd in assay [1] was 33 nM. CQCRRKNYGQLDIFP (poly D-arginine transduction domain (D-residues)) [GO-201] returned a Kd in assay [2] of 30 nM.
